According to the supplement of paper PMC10567573:

B1: COX4I1 (parent)
chain: FDKEWVAKQTKRMLDMKVNPIQGL
B2: ZC3H15 (parent)
chain: RKADFKAGKALVISGREVFEFRPE

Variants of: B1
Assay: protein stability index of a GFP-peptide fusion (GPS, HEK-293T) (PSI 1-6); higher = more stable
Details: c terminus: a fixed tail appended
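Further: lentivirally expressed fusions sorted by FACS into six bins by GFP to DsRed ratio, PSI derived from sequencing read proportions per bin multiplied by bin number.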

Protein stability index of substitutions, site by site:
K8: N 1.38
Q9: L 2.08
L14: R 1.82
V18: F 1.42, G 2
I21: P 1.63
Q22: P 1.73
D2: K 1.62
R12: W 1.65
F1: A 3.42, M 3.23
M16: P 2.19
K11: V 2.58, D 1.54
P20: I 1.56, M 2.08
D15: G 1.75, E 1.68

Variants of: B2
Assay: as above
Details: c terminus: a fixed tail appended

Protein stability index of substitutions, site by site:
R1: T 3.22, K 3.32, L 2.43, N 3.23, C 1.91, A 3.21, H 3.44, S 2.9, F 2.01, P 3.19, I 1.58, Q 2.99, G 2.95, W 2.53, M 2.71, V 2.02, E 3.5, D 3.7, Y 2.81
G8: Y 1.74, W 1.79, S 2.7, V 2.16, C 2.14, M 2.59, R 2.52, A 2.94, H 2.66, E 2.99, L 1.92, I 2.23, K 3.24, T 2.78, F 1.93, Q 2.85, N 3.3, P 2.65, D 3.31
K2: Y 2, T 3.06, Q 3.23, N 3.24, F 2.06, W 1.94, S 3.02, P 2.75, I 1.92, C 1.85, M 2.33, H 2.46, E 2.81, G 3.3, A 3.43, V 2.49, R 2.78, D 3.43, L 1.76
A3: V 2.61, D 3.7, N 3.11, G 3.13, S 2.68, T 3.24, P 2.95, E 3.77, L 2.57, W 2.51, R 2.85, Q 3.06, H 2.44, I 2.71, Y 2.52, C 2.09, M 2.75, F 2.23, K 3.12
G15: C 2.07, Q 2.92, L 1.81, K 3.14, Y 1.85, M 2.04, H 2.2, R 2.73, V 2.06, T 2.93, S 3.18, A 2.64, I 2.37, P 3.37, D 3.38, F 2.27, W 1.37, E 3.65, N 3.4
K6: M 2.36, P 2.72, N 3.22, V 3.03, Q 2.44, E 3.24, H 2.6, A 2.71, G 2.4, C 2.79, W 2.4, L 2.29, T 2.99, Y 2.87, I 2.42, S 2.82, F 1.79, D 3.75, R 2.29
F5: S 3.77, Y 3.16, C 3.55, H 3.77, V 3.6, T 3.59, G 4.05, K 3.47, A 3.91, D 3.77, N 3.38, P 3.25, I 2.94, Q 3.8, W 2.48, L 3.93, M 2.85, R 3.76, E 4.18
K9: V 2.48, F 1.7, G 2.28, T 3.04, P 2.78, M 2.31, D 3.18, N 3.16, H 2.93, S 3.16, L 1.99, R 2.31, I 1.57, A 3.02, W 1.87, C 2.33, Q 2.65, Y 1.05, E 3.11
I13: P 3.48, E 4.28, A 3.86, V 3.51, F 2.32, G 4, D 4.17, Q 3.72, W 2.8, S 3.8, H 3.13, L 3.55, C 3.2, K 3.79, R 3.89, T 3.21, Y 2.77, M 3.26, N 3.95
E17: D 2.88, C 1.71, M 1.14, H 1.9, A 1.47, P 2.66, K 2.08, G 2.3, N 2.57, F 2.17, L 2.04, I 1.64
A7: V 2.91, G 2.86, C 2.35, Q 2.93, K 3.67, F 2.21, H 2.75, E 2.86, P 3.2, R 2.85, L 2.08, N 3.11, I 2.66, D 3.12, Y 2.18, W 1.71, M 2.46, S 3.26, T 3.12
V12: M 3.26, I 2.85, H 3.52, W 2.4, L 2.42, F 2.39, N 3.93, K 2.91, Y 2.73, S 3.47, R 3.31, C 2.89, G 3.17, P 3.82, T 2.68, A 3.23, E 3.49, Q 3.15, D 4.03
L11: G 3.46, H 3.36, Q 3.66, R 2.95, Y 2.29, E 3.78, S 3.69, F 2.65, C 3.09, A 3.06, N 4.1, P 3.54, W 2.55, T 3.76, V 3.11, D 3.69, M 2.84, K 3.77, I 2.72
S14: E 3.67, K 3.32, G 3.11, M 2.49, L 1.57, H 3.31, W 1.87, N 2.66, I 1.93, F 1.23, T 2.98, C 1.21, Q 2.81, Y 2.39, R 2.56, D 3.82, P 3.44, V 1.43, A 2.86
D4: L 1.91, A 2.36, Y 2.12, R 2.55, S 2.55, W 1.73, K 2.53, F 1.98, I 2.27, N 2.03, C 1.79, E 2.64, P 2.36, M 2.54, V 2.2, H 2.15, G 2.42, T 1.98, Q 2.73
R16: V 1.91, W 1.92, Q 3.61, N 3.63, L 2.42, H 2.98, C 1.89, Y 1.54, G 2.99, E 3.7, I 1.92, K 3.38, M 2.08, S 3.21, P 3.27, A 2.71, T 2.99, D 3.69, F 1.65
A10: K 2.47, E 2.97, L 2.09, S 2.86, G 2.86, M 2.09, R 3.09, F 1.53, H 2.75, Q 3.17, W 2.97, Y 1.92, N 3.16, D 3.5, V 2.49, P 3.73, C 2.12, I 2.09, T 2.88
